These results are taken from publication PMC7673989 (2020).

The target in assay [1] is T1, KETWV peptide (synthetic construct).
T1 chain: KETWV
The experiment in a line: ITC, 21 °C. (ITC needs no label: the signal is the heat of the interaction.)

The target of assay [2] is T1, KETWV peptide. The experiment in a line: intrinsic tryptophan fluorescence quenching, 21 °C.

B1: PSD-95 PDZ3 302-403 (protein)
chain: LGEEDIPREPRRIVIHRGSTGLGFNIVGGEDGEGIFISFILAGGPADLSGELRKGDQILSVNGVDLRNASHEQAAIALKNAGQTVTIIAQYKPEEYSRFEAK
B1: the Kd is 25.2 µM with KETWV peptide [1] and 24.6 µM with KETWV peptide [2].

As usually defined, the Kd is the constant that tells how readily two partners part at equilibrium.
